According to patent US20140274782A1, “AFFINITY REAGENTS AND METHODS FOR DETECTION, PURIFICATION, AND PROTEOMIC ANALYSIS OF METHYLATED PROTEINS” (The Board of Trustees of the Leland Stanford Junior …, priority 2013, published 2014):

T1: G9a and GLP (Homo sapiens, UniProt Q96KQ7+Q9H9B1)
T1 sequence (Q96KQ7 2-1210 limits assumed): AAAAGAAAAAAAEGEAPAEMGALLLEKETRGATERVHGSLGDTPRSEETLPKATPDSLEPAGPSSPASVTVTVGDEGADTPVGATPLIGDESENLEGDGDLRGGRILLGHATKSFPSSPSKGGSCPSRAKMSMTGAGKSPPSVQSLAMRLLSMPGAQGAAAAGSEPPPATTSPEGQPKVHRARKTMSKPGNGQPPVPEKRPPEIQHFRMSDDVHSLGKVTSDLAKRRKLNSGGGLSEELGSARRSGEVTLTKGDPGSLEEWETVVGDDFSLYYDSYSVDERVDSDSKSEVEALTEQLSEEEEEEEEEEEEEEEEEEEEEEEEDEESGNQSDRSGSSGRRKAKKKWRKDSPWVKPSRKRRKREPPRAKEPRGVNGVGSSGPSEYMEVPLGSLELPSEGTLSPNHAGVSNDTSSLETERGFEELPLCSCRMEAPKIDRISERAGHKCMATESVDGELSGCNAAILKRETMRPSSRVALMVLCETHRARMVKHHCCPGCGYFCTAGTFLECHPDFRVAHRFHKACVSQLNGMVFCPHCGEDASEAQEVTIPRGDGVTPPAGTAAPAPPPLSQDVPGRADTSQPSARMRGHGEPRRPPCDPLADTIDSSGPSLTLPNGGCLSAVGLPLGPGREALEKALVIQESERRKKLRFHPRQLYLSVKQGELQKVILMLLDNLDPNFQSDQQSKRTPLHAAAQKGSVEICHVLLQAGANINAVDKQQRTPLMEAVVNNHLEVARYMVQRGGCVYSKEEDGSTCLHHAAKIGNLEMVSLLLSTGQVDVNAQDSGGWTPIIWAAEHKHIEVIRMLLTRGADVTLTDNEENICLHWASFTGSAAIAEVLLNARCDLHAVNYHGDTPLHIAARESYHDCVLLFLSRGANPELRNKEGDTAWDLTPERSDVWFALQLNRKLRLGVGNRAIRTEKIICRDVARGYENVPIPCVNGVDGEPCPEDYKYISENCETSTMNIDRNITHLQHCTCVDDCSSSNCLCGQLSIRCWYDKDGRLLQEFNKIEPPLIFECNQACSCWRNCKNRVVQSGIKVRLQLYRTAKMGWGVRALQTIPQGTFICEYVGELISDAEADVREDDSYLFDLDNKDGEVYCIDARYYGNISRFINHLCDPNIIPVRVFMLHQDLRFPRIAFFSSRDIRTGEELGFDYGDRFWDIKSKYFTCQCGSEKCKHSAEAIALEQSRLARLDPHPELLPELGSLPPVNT
T1 sequence (Q9H9B1 2-1298 limits assumed): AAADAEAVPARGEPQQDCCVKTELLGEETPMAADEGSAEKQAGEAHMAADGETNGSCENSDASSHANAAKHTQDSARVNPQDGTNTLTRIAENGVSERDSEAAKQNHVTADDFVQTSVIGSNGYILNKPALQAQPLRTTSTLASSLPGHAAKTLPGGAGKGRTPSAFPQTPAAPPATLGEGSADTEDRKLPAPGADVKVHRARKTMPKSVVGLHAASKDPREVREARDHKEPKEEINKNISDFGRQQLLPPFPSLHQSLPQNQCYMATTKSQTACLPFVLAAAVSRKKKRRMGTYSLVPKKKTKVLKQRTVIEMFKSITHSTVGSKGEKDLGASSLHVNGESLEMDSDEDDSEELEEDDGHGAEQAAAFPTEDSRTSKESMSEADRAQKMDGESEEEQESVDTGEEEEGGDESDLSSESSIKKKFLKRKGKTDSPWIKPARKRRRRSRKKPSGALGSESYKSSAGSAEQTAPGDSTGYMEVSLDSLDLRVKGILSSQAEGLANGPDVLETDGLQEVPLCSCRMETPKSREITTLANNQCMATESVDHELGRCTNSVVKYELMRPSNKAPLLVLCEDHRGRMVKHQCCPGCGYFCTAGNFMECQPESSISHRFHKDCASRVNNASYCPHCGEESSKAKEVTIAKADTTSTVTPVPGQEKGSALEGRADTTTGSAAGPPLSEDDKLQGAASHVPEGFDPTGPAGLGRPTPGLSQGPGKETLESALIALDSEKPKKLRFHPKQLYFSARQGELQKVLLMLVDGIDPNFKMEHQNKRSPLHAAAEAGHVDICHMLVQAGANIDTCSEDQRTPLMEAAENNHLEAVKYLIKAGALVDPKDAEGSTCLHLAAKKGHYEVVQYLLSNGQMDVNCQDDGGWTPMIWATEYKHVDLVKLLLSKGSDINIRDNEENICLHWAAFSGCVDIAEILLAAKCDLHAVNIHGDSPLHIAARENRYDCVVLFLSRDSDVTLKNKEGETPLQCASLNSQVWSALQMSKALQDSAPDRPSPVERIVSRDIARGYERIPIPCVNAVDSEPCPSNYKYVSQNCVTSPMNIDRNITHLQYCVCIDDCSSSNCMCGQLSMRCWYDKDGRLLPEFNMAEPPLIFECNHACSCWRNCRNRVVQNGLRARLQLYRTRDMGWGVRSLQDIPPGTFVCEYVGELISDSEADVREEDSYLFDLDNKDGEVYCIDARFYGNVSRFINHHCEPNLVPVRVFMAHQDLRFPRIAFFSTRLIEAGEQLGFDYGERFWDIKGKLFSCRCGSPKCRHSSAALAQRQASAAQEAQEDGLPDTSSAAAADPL

B1: CAND1 (protein, UniProt Q86VP6 2-1230, looked up)
Cullin-associated …: ASASYHISNLLEKMTSSDKDFRFMATNDLMTELQKDSIKLDDDSERKVVKMILKLLEDKNGEVQNLAVKCLGPLVSKVKEYQVETIVDTLCTNMLSDKEQLRDISSIGLKTVIGELPPASSGSALAANVCKKITGRLTSAIAKQEDVSVQLEALDIMADMLSRQGGLLVNFHPSILTCLLPQLTSPRLAVRKRTIIALGHLVMSCGNIVFVDLIEHLLSELSKNDSMSTTRTYIQCIAAISRQAGHRIGEYLEKIIPLVVKFCNVDDDELREYCIQAFESFVRRCPKEVYPHVSTIINICLKYLTYDPNYNYDDEDEDENAMDADGGDDDDQGSDDEYSDDDDMSWKVRRAAAKCLDAVVSTRHEMLPEFYKTVSPALISRFKEREENVKADVFHAYLSLLKQTRPVQSWLCDPDAMEQGETPLTMLQSQVPNIVKALHKQMKEKSVKTRQCCFNMLTELVNVLPGALTQHIPVLVPGIIFSLNDKSSSSNLKIDALSCLYVILCNHSPQVFHPHVQALVPPVVACVGDPFYKITSEALLVTQQLVKVIRPLDQPSSFDATPYIKDLFTCTIKRLKAADIDQEVKERAISCMGQIICNLGDNLGSDLPNTLQIFLERLKNEITRLTTVKALTLIAGSPLKIDLRPVLGEGVPILASFLRKNQRALKLGTLSALDILIKNYSDSLTAAMIDAVLDELPPLISESDMHVSQMAISFLTTLAKVYPSSLSKISGSILNELIGLVRSPLLQGGALSAMLDFFQALVVTGTNNLGYMDLLRMLTGPVYSQSTALTHKQSYYSIAKCVAALTRACPKEGPAVVGQFIQDVKNSRSTDSIRLLALLSLGEVGHHIDLSGQLELKSVILEAFSSPSEEVKSAASYALGSISVGNLPEYLPFVLQEITSQPKRQYLLLHSLKEIISSASVVGLKPYVENIWALLLKHCECAEEGTRNVVAECLGKLTLIDPETLLPRLKGYLISGSSYARSSVVTAVKFTISDHPQPIDPLLKNCIGDFLKTLEDPDLNVRRVALVTFNSAAHNKPSLIRDLLDTVLPHLYNETKVRKELIREVEMGPFKHTVDDGLDIRKAAFECMYTLLDSCLDRLDIFEFLNHVEDGLKDHYDIKMLTFLMLVRLSTLCPSAVLQRLDRLVEPLRATCTTKVKANSVKQEFEKQDELKRSAMRAVAALLTIPEAEKSPLMSEFQSQISSNPELAAIFESIQKDSSSTNLESMDTS
B2: DDX23 (protein, UniProt Q9BUQ8 1-820, looked up)
Probable ATP-dependent RNA …: MAGELADKKDRDASPSKEERKRSRTPDRERDRDRDRKSSPSKDRKRHRSRDRRRGGSRSRSRSRSKSAERERRHKERERDKERDRNKKDRDRDKDGHRRDKDRKRSSLSPGRGKDFKSRKDRDSKKDEEDEHGDKKPKAQPLSLEELLAKKKAEEEAEAKPKFLSKAEREAEALKRRQQEVEERQRMLEEERKKRKQFQDLGRKMLEDPQERERRERRERMERETNGNEDEEGRQKIREEKDKSKELHAIKERYLGGIKKRRRTRHLNDRKFVFEWDASEDTSIDYNPLYKERHQVQLLGRGFIAGIDLKQQKREQSRFYGDLMEKRRTLEEKEQEEARLRKLRKKEAKQRWDDRHWSQKKLDEMTDRDWRIFREDYSITTKGGKIPNPIRSWKDSSLPPHILEVIDKCGYKEPTPIQRQAIPIGLQNRDIIGVAETGSGKTAAFLIPLLVWITTLPKIDRIEESDQGPYAIILAPTRELAQQIEEETIKFGKPLGIRTVAVIGGISREDQGFRLRMGCEIVIATPGRLIDVLENRYLVLSRCTYVVLDEADRMIDMGFEPDVQKILEHMPVSNQKPDTDEAEDPEKMLANFESGKHKYRQTVMFTATMPPAVERLARSYLRRPAVVYIGSAGKPHERVEQKVFLMSESEKRKKLLAILEQGFDPPIIIFVNQKKGCDVLAKSLEKMGYNACTLHGGKGQEQREFALSNLKAGAKDILVATDVAGRGIDIQDVSMVVNYDMAKNIEDYIHRIGRTGRAGKSGVAITFLTKEDSAVFYELKQAILESPVSSCPPELANHPDAQHKPGTILTKKRREETIFA
B3: NTHL1 (protein, UniProt P78549 23-304, looked up)
Endonuclease III-like protein …: GCREEPGPLRRREAAAEARKSHSPVKRPRKAQRLRVAYEGSDSEKGEGAEPLKVPVWEPQDWQQQLVNIRAMRNKKDAPVDHLGTEHCYDSSAPPKVRRYQVLLSLMLSSQTKDQVTAGAMQRLRARGLTVDSILQTDDATLGKLIYPVGFWRSKVKYIKQTSAILQQHYGGDIPASVAELVALPGVGPKMAHLAMAVAWGTVSGIAVDTHVHRIANRLRWTKKATKSPEETRAALEEWLPRELWHEINGLLVGFGQQTCLPVHPRCHACLNQALCPAAQGL
B4: NUDT16L1 (protein, UniProt Q9BRJ7 1-211, looked up)
Tudor-interacting repair …: MSTAAVPELKQISRVEAMRLGPGWSHSCHAMLYAANPGQLFGRIPMRFSVLMQMRFDGLLGFPGGFVDRRFWSLEDGLNRVLGLGLGCLRLTEADYLSSHLTEGPHRVVAHLYARQLTLEQLHAVEISAVHSRDHGLEVLGLVRVPLYTQKDRVGGFPNFLSNAFVSTAKCQLLFALKVLNMMPEEKLVEALAAATEKQKKALEKLLPASS

Columns and labels:
G9a and GLP = target: T1, G9a and GLP; experiment: Triple SILAC pull-down after UNC0638 treatment of 293T cells, DMSO/UNC0638 ratio of protein captured by 3×MBT; format: cell-based; set-up: cells were treated for 24 hours with UNC0638 at 2.5 μM or DMSO vehicle control; endogenous in cells; host or cells: HEK 293T; conditions: for Relative to UNC0638 UNC Heavy: UNC0638 in heavy SILAC media; for Relative to UNC0638 UNC Light: UNC0638 in light SILAC media; for Relative to UNC0638 Average: average of UNC Light and UNC Heavy experiments; for Candidate G9a/GLP target: reduced association with 3xMBT after UNC0638 treatment;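 as to all read-outs here: mass spectrometry (Q-Exactive) SILAC quantitation, DMSO/UNC0638 ratio computed after subtracting 3×MBTD355N mutant pull-down background, only proteins with at least twofold 3×MBT over mutant signal considered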
3×MBT domain of L3MBTL1 = experiment: Triple SILAC pull-down, 3xMBT/3xMBTD355N ratio (cytoplasmic, nuclear and chromatin fractions of 293T cells); format: binding, human; conditions: for 3xMBT/D355N UNC Heavy: experiment with UNC0638 in heavy SILAC media; for 3xMBT/D355N UNC Light: experiment with UNC0638 in light SILAC media;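 as to all read-outs here: proteins quantified with MaxQuant, requiring at least two unique peptides and quantification in both label directions, normalized to the mean of proteins from a digested loading control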
[1] = SILAC ratio DMSO relative to UNC0638, pull-down with 3xMBT, all values in log base 2
[2] = SILAC ratio 3xMBT vs 3xMBTD355N pull-down, 293T cells, all values in log base 2
[3] = SILAC ratio DMSO/UNC0638 of protein pulled down with 3xMBT
[4] = SILAC ratio, pull-down 3xMBT vs 3xMBTD355N

Molecule | Relative to UNC0638 UNC Heavy (G9a and GLP; [1]) [log base 2] | Relative to UNC0638 UNC Light (G9a and GLP; [1]) [log base 2] | Relative to UNC0638 Average (G9a and GLP; all values in log base 2) [log base 2] | 3xMBT/D355N UNC Heavy (3×MBT domain of L3MBTL1; [2]) [log base 2] | 3xMBT/D355N UNC Light (3×MBT domain of L3MBTL1; [2]) [log base 2] | Relative to UNC0638 UNC Heavy (G9a and GLP; [3]) [log base 2] | Relative to UNC0638 UNC Light (G9a and GLP; [3]) [log base 2] | Relative to UNC0638 Average (G9a and GLP) [log base 2] | Candidate G9a/GLP target (G9a and GLP) | 3xMBT/D355N UNC Heavy (3×MBT domain of L3MBTL1; [4]) [log base 2] | 3xMBT/D355N UNC Light (3×MBT domain of L3MBTL1; [4]) [log base 2]
B1 | −3.85 | 1.78 | −1.03 | 3.61 | 3.86 | – | – | – | – | – | –
B2 | – | – | – | – | – | 0.29 | 0.54 | 0.42 | ✓ | 2.24 | 2.27
B3 | – | – | – | – | – | 0.72 | −0.12 | 0.30 | – | 0.48 | 1.60
B4 | – | – | – | – | – | 0.57 | 0.28 | 0.43 | ✓ | 1.84 | 1.77
